Laboratory results: patent US6124125A, “AMP activated protein kinase” (Trustees of Dartmouth College, priority 1996, dated 2000)
Where “and” joins values, the source holds several entries; their conditions need not be identical. Identical values can stand only once. One block for each compound: values may come before it. Where no end group is shown, it is not given here.

How the values were obtained:
AMPK α1 = assay type: biochemical, rat; settings: alpha1 immune precipitates, 200 µM
AMPK α2 = assay type: biochemical, rat; settings: alpha2 immune precipitates
AMPK = AMPK protein kinase assay: phosphorylation of synthetic peptide substrates by partially purified enzyme (DE-52 step); assay type: biochemical, porcine; settings: for rate of phosphorylation relative to the SAMS peptide: partially purified enzyme (purified to the DE-52 step), % of the rate of the SAMS peptide; for Km: peptide as substrate of AMPK, read-out: apparent Km as substrate for the AMPK
Source text: A series of synthetic peptides including analogues of proteins […] to be substrates for the AMPK were screened with partially purified enzyme (purified to the DE-52 step). These included the myosin light chains, ADR1, glycogen synthase and phospholemman. The phospholemman peptides tested were poor substrates and not investigated further. The glycogen synthase peptide, PLSRTLSVAAKK (SEQ ID NO: 46) was phosphorylated in an AMP-dependent manner at approximately 40% of the rate of the SAMS peptide, however, this peptide is an excellent substrate for a number of protein kinases, including protein kinase C and calmodulin dependent protein kinase II (Kemp, B. E. and Pearson, R. B. (1991) in Protein Phosphorylation, Hunter, T and Sefton, B. M. (eds) Methods in Enzymology, 200, 121-134). The myosin light chain peptides tested were phosphorylated with rates approximately 15% of the SAMS peptide.
The AMPK was assayed in accordance with procedures described by Davies et al. (1989) Eur. J. Biochem. 186, 123-128 using the SAMS peptide substrate, HMRSAMSGLHLVKRR-amide (SEQ ID NO: 49). The enzyme was diluted in diluting buffer (20 mM HEPES pH 7.0, 0.1% (v/v) Triton X-100) prior to assay and the reactions were initiated by adding […] diluted enzyme to the reaction mixture containing peptide substrate. The reactions were stopped by withdrawing […] aliquots and applying to P81 papers in accordance with procedures described by Pearson, R. B., Mitchelhill, K. I., and Kemp, B. E. (1993) in Protein Phosphorylation: A Practical Approach, Hardie, G. D. (ed) Oxford University Press, pp 265-291.

SAMS peptide [1] = settings: scale: % of the SAMS peptide phosphotransferase activity of rat liver
SAMS peptide [2] = target: SAMS peptide
[3] = target: ADR1(222-234)P229 peptide
[4] = target: ADR1(225-234) peptide (Saccharomyces cerevisiae (strain ATCC 204508 / S288c) (Baker's yeast)) (UniProt P07248)
SAMS peptide [5] = target: SAMS peptide; remark: listed apart in the source
[6] = target: glycogen synthase peptide
[7] = target: myosin light chain peptides

Compound: Nc1ncnc2c1ncn2[C@@H]1O[C@H](COP(=O)(O)O)[C@@H](O)[C@H]1O [5'-AMP]
- activation by 5'-AMP (AMPK α1): 2-3 fold
- activation by 5'-AMP (AMPK α2): 3-4 fold

Compound: ADR1(225-234): synthetic ADR1 peptide screened as AMPK substrate (LTRRASFSAQ)
- rate of phosphorylation relative to the SAMS peptide (AMPK): approximately 50%

Compound: AMPK α1 isoform holoenzyme purified from liver by peptide substrate affinity chromatography (63 kDa catalytic subunit, 40 kDa and 38 kDa subunits) (from UniProt P54645)
- SAMS peptide phosphotransferase activity (SAMS peptide [1]): > 94

Compound: HMRSAMSGLHLVKRR-amide (HMRSAMSGLHLVKRR-NH2) [SAMS peptide]
- Km (AMPK): 33 µM

Compound: PLSRTLSVAAKK [glycogen synthase peptide]
- rate of phosphorylation relative to the SAMS peptide (AMPK): approximately 40%

Other lines, results leading:

- apparent specific activity (SAMS peptide [2]): > 20 fold lower
- apparent specific activity (acetyl CoA carboxylase): > 20 fold lower
Compound: AMPK α2 isoenzyme of rat liver (α2 with β and γ subunits), from the unbound fraction of the peptide substrate affinity column (from UniProt Q09137)

- apparent Km of phosphorylation [3]: 3 µM
- rate of phosphorylation (% of the SAMS peptide) [4]: 50
- apparent Km of phosphorylation (SAMS peptide [5]): 33 µM
- rate of phosphorylation (% of the rate of the SAMS peptide) [6]: 40
- rate of phosphorylation (% of the SAMS peptide) [7]: 15
Compound: AMPK, partially purified enzyme (purified to the DE-52 step)

- rate of phosphorylation relative to the SAMS peptide (AMPK): approximately 50%
- Km (AMPK): ~3 µM and 3 µM
Compound: LKKLTLRASFSAQ (not fully specified) [ADR1(222-234)^P229]
